± gives the uncertainty stated by the source.
B1: POU domain, class 3, transcription factor 2, residues 262 to 338; numbered along this chain, P20265 (parent)
chain: EDTPTSDDLEQFAKQFKQRRIKLGFTQADVGLALGTLYGNVFSQTTICRFEALQLSFKNMCKLKPLLNKWLEEADSS

Variants of: B1
Assay: abundance fitness (aPCA) (normalised: wild type 0, dead -1); higher = more abundant; growth selection in yeast, the domain comes from the species named
Conditions: Homo sapiens

Variant	abundance fitness
EDTPTSDDLEQFAKQFKQRRIKLGFTQADVGLALGTLYGNVFSQTTICRFEALQLSFCNMCKLKPLLNKWLEEADSS	-0.321 ± 0.096
EDTPTSDDLEQFAKQFKQRRIKLGFTQADVGLALGTLYGNVFSQTTICRFEALQLSFDNMCKLKPLLNKWLEEADSS	-0.088 ± 0.091
EDTPTSDDLEQFAKQFKQRRIKLGFTQADVGLALGTLYGNVFSQTTICRFEALQLSFANMCKLKPLLNKWLEEADSS	-0.042 ± 0.036
EDTPTSDDLEQFAKQFKQRRIKLGFTQADVGLALGTLYGNVFSQTTICRFEALQLSFQNMCKLKPLLNKWLEEADSS	0.024 ± 0.042
EDTPTSDDLEQFAKQFKQRRIKLGFTQADVGLALGTLYGNVFSQTTICRFEALQLSFENMCKLKPLLNKWLEEADSS	0.069 ± 0.039
EDTPTSDDLEQFAKQFKQRRIKLGFTQADVGLALGTLYGNVFSQTTICRFEALQLSFVNMCKLKPLLNKWLEEADSS	-0.113 ± 0.039
EDTPTSDDLEQFAKQFKQRRIKLGFTQADVGLALGTLYGNVFSQTTICRFEALQLSFWNMCKLKPLLNKWLEEADSS	-0.235 ± 0.044
EDTPTSDDLEQFAKQFKQRRIKLGFTQADVGLALGTLYGNVFSQTTICRFEALQLSFKNQCKLKPLLNKWLEEADSS	-0.546 ± 0.095
EDTPTSDDLEQFAKQFKQRRIKLGFTQADVGLALGTLYGNVFSQTTICRFEALQLSFKNLCKLKPLLNKWLEEADSS	-0.282 ± 0.039
EDTPTSDDLEQFAKQFKQRRIKLGFTQADVGLALGTLYGNVFSQTTICRFEALQLSFKNACKLKPLLNKWLEEADSS	-0.168 ± 0.035
EDTPTSDDLEQFAKQFKQRRIKLGFTQADVGLALGTLYGNVFSQTTICRFEALQLSFKNRCKLKPLLNKWLEEADSS	-0.706 ± 0.047
EDTPTSDDLEQFAKQFKQRRIKLGFTQADVGLALGTLYGNVFSQTTICRFEALQLSFKNECKLKPLLNKWLEEADSS	-0.848 ± 0.079
EDTPTSDDLEQFAKQFKQRRIKLGFTQADVGLALGTLYGNVFSQTTICRFEALQLSFKNVCKLKPLLNKWLEEADSS	-0.553 ± 0.043
EDTPTSDDLEQFAKQFKQRRIKLGFTQADVGLALGTLYGNVFSQTTICRFEALQLSFKNGCKLKPLLNKWLEEADSS	-0.543 ± 0.035
EDTPTSDDLEQFAKQFKQRRIKLGFTQADVGLALGTLYGNVFSQTTICRFEALQLSFKNICKLKPLLNKWLEEADSS	-0.907 ± 0.29
EDTPTSDDLEQFAKQFKQRRIKLGFTQADVGLALGTLYGNVFSQTTICRFEALQLSFKNNCKLKPLLNKWLEEADSS	-0.561 ± 0.33
EDTPTSDDLEQFAKQFKQRRIKLGFTQADVGLALGTLYGNVFSQTTICRFEALQLSFKNWCKLKPLLNKWLEEADSS	-0.625 ± 0.071
EDTPTSDDLEQFAKQFKQRRIKLGFTQADVGLALGTLYGNVFSQTTICRFEALQLSFKNTCKLKPLLNKWLEEADSS	-0.337 ± 0.054

Variant	abundance fitness
EDTPTSDDLEQFAKQFKQRRIKLGFTQADVGLALGTLYGNVFSQTTICRFEALQLSFKNFCKLKPLLNKWLEEADSS	-0.373 ± 0.13
EDTPTSDDLEQFAKQFKQRRIKLGFTQADVGLALGTLYGNVFSQTTICRFEALQLSFKNHCKLKPLLNKWLEEADSS	-0.367 ± 0.17
EDTPTSDDLEQFAKQFKQRRIKLGFTQADVGLALGTLYGNVFSQTTICRFEALQLSFKNYCKLKPLLNKWLEEADSS	-0.624 ± 0.15
EDTPTSDDLEQFAKQFKQRRIKLGFTQADVGLALGTLYGNVFSQTTICRFEALQLSFKNCCKLKPLLNKWLEEADSS	-0.386 ± 0.074
EDTPTSDDLEQFAKQFKQRRIKLGFTQADVGLALGTLYGNVFSQTTICRFEALQLSFKNDCKLKPLLNKWLEEADSS	-0.961 ± 0.2
EDTPTSDDLEQFAKQFKQRRIKLGFTQADVGLALGTLYGNVFSQTTICRFEALQLSFKNKCKLKPLLNKWLEEADSS	-0.97 ± 0.18
EDTPTSDDLEQFAKQFKQRRIKLGFTQADVGLALGTLYGNVFSQTTICRFEALQLSFKNSCKLKPLLNKWLEEADSS	-0.377 ± 0.055
EDTPTSDDLEQFAKQFKQRRIKLGFTQADVGLALGTLYGNVFSQTTICRFEALQLSFKNMNKLKPLLNKWLEEADSS	-0.107 ± 0.075
EDTPTSDDLEQFAKQFKQRRIKLGFTQADVGLALGTLYGNVFSQTTICRFEALQLSFKNMEKLKPLLNKWLEEADSS	-0.147 ± 0.037
EDTPTSDDLEQFAKQFKQRRIKLGFTQADVGLALGTLYGNVFSQTTICRFEALQLSFKNMMKLKPLLNKWLEEADSS	-0.088 ± 0.037
EDTPTSDDLEQFAKQFKQRRIKLGFTQADVGLALGTLYGNVFSQTTICRFEALQLSFKNMAKLKPLLNKWLEEADSS	-0.101 ± 0.031
EDTPTSDDLEQFAKQFKQRRIKLGFTQADVGLALGTLYGNVFSQTTICRFEALQLSFKNMKKLKPLLNKWLEEADSS	-0.056 ± 0.053
EDTPTSDDLEQFAKQFKQRRIKLGFTQADVGLALGTLYGNVFSQTTICRFEALQLSFKNMFKLKPLLNKWLEEADSS	-0.274 ± 0.053
EDTPTSDDLEQFAKQFKQRRIKLGFTQADVGLALGTLYGNVFSQTTICRFEALQLSFKNMQKLKPLLNKWLEEADSS	-0.112 ± 0.048
EDTPTSDDLEQFAKQFKQRRIKLGFTQADVGLALGTLYGNVFSQTTICRFEALQLSFKNMGKLKPLLNKWLEEADSS	-0.278 ± 0.027
EDTPTSDDLEQFAKQFKQRRIKLGFTQADVGLALGTLYGNVFSQTTICRFEALQLSFKNMLKLKPLLNKWLEEADSS	-0.001 ± 0.029
EDTPTSDDLEQFAKQFKQRRIKLGFTQADVGLALGTLYGNVFSQTTICRFEALQLSFKNMPKLKPLLNKWLEEADSS	-0.779 ± 0.086
EDTPTSDDLEQFAKQFKQRRIKLGFTQADVGLALGTLYGNVFSQTTICRFEALQLSFKNMDKLKPLLNKWLEEADSS	-0.291 ± 0.075

From the Human Domainome abundance scans (Beltran et al. 2025)
